Consider 2 molecules from article PMC11162469, “Discovery of RXFP2 genetic association in resistant hypertensive men and RXFP2 antagonists for the treatment of resistant hypertension” (Scientific Reports, 2024).

For orientation: IC50 means the concentration needed to halve the response being measured. The term Cmax denotes the peak of the concentration-time curve. The term Tmax denotes the time from dosing to the highest level.

For data set [1], the target named is T1, human LDLa peptide (UnitProt Q8WXD0 43-80) (Homo sapiens, UniProt Q8WXD0).
T1 construct: human LDLa peptide (Q8WXD0 43-80)
Nature of the data set: ELISA binding to linker-less human LDLa peptide. As to the method:
The human/rat RXFP2 cross reactive antibodies belong to two epitope bins and were further evaluated for binding to the linker-less human LDLa peptide (UnitProt Q8WXD0 43-80) by ELISA. […] The different domain requirements for binding are consistent with results from the binning experiment showing 4F6 and 4G6 are in a separate bin from 4B1.
Rat LDLa-linker_ratFc, human LDLa-linker_ratFc, or ratFc, or human LDLa peptide (Q8WXD0 43-80) was diluted to 1 µg/mL in 1X PBS and immobilized in separate 96-well ELISA plates (Nunc Maxisorp), 50 µL/well. The plates were then incubated overnight at 4 °C. The following day the plates were washed three times with ELISA wash buffer (PBS + 0.05% Tween-20) and then blocked with ELISA blocking buffer (PBS + 0.05% Tween-20 + 1% BSA), 200 µL/well, and incubated 1 h at room temperature on a shaker. Plates were again washed three times followed by the addition of the primary antibodies. Hybridoma supernatant was added neat, 50 µL/well; mouse serum was added 1:100 and then serially diluted 1:2 for 8 points, 50 µL/well. Purified antibodies were added 5 µg/mL in the first well and serially diluted down the plate 1:2 for 8 points, 50 µL/well. Primary antibody was incubated for 1 h at room temperature on a shaker. […] Stopping solution (2N Sulfuric acid) was added to the plates 50 µL/well, and then read on a plate reader (SpectraMax Molecular Devices) at 450 nm.
In general terms: In an ELISA, binding on a coated surface is turned into a signal by an enzyme label.

For data set [2], the target named is human RXFP2 (Homo sapiens, UniProt Q8WXD0). As to the kind of experiment: INSL3-stimulated cAMP assay in HEK293 stably expressing human RXFP2. The conditions noted are these: INSL3 EC80-stimulated cAMP, stable expression, N = 2; for IC50: read-out: HEK293-human RXFP2 cAMP IC50.
Description: RXFP activity assays were developed in HEK293 with stable expression of RXFP2 or RXFP1.
The same approach was used to generate stable HEK293 lines expressing human and rat RXFP1 and RXFP2 cDNA. The cAMP assay was conducted using the Eurofin Hithunter kit per manufacturer’s instructions in a 384-well format. All dose curve fitting and EC50 and IC50 determinations were performed in Prism (v9.3.0) using the non-linear fit, variable slope (four parameter) function.
The target of data set [3] is T2, human LDLa-linker (Homo sapiens, UniProt Q8WXD0).
T2 construct: human LDLa linker [huRXFP2-LDLa-linker(38-105)-ratFc-8XHIS]; enterokinase cleavage site (C); rat Fc (C, cleaved yes); 8xHis (C, cleaved yes); made in house; host or cells: Expi293
Nature of the data set: Biacore S200 binding to human LDLa-linker protein. As for the experimental part:
Goat anti Rat Fc gamma fragment specific (Jackson Immunoresearch, 112-005-071) was immobilized at 30 µg/mL to a Series S CM5 chip (Cytiva Life Sciences). In three separate runs, twenty different purified recombinant rat anti RXFP2 antibodies were then captured to the CM5 chip at a concentration of 5 µg/mL. The antibody panel was captured; rat LDLa-linker or human LDLa-linker protein was flowed as analyte at the following concentrations: 20 nM, 10 nM, 5 nM, 2.5 nM, […], and 0 nM. Antibody kinetics were evaluated using a 1:1 fit model (Biacore S200).

Data set [4] deals with T3, rat RXFP2 (Rattus norvegicus, UniProt F7EMH8). Nature of the data set: INSL3-stimulated cAMP assay in HEK293 stably expressing rat RXFP2.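 For all read-outs here: cAMP measured with an HitHunter kit in 384-well plates, 11-point dose–response curves up to 1 µM antibody, four-parameter variable-slope fit.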 The conditions noted are these: INSL3 EC80-stimulated cAMP, stable expression, N = 2; for IC50: read-out: HEK293-rat RXFP2 cAMP IC50.
In data set [5] the target is T3, rat RXFP2. Nature of the data set: INSL3-stimulated CYP11B2 mRNA expression in H295R stably expressing rat RXFP2. The class given is cell-based. Particulars: INSL3 EC80 (3.5 nM), 48 h, qPCR; N = 2. Further details: expressed in transfected cells. As for the experimental part: (§1) RXFP2 antagonists were added to H295R-rRXFP2 before addition of INSL3 EC80 (3.5 nM) for 48 h, whereupon the cells and supernatants were collected. CYP11B1 and CYP11B2 mRNA were determined by qPCR and the RXFP2 blocker potencies were calculated (Fig. 5a). Fifteen antibodies have IC50s < 50 nM, and three of the top antibodies (1F2, 4G6, and 2D4) were selected for evaluation in steroid hormone secretion assays by ELISA.
(§2) Data entered as XY table, with x = [Inhibitor] (nM) and y = CYP11B2 or CYP11B1 fold change.
A general note: Quantitative PCR measures a nucleic acid by following its amplification.

Data set [6] has as its target T3, rat RXFP2. As to the kind of experiment: INSL3-stimulated CYP11B1 mRNA expression in H295R stably expressing rat RXFP2. Details: expressed in transfected cells. The class given is cell-based. Particulars: INSL3 EC80 (3.5 nM), 48 h, qPCR; N = 2. As to the method: as §1, §2
Data set [7] deals with T3, rat RXFP2. As to the kind of experiment: Aldosterone secretion (ELISA) in H295R stably expressing rat RXFP2. The class given is cell-based. Further details: expressed in transfected cells. Particulars: H295R-rRXFP2, 3.5 nM INSL3, 48 h, read-out: IC50 on INSL3-induced aldosterone release. As for the experimental part: as §1
(§3) The day after seeding, H295R cells were treated and incubated for 48 h before supernatants and cell lysates were collected. Treatments included INSL3, IgG, 1F2, and 4G6 at 0.035 pM–3.5 µM, 2D4 at 0.01 nM–1 uM, or phosphate buffered saline control. In RXFP2 antagonist assays, 3.5 nM INSL3 was used as the stimulus. Cortisol present in the adrenal cell supernatant at 48 h post treatment was detected by ELISA (R&D KGE008B). Sample dilution was optimized at 1/90 using a standard curve. Aldosterone was below the limit of detection by ELISA (R&D KGE016) and required liquid–liquid extraction (LLE) twice using methyl tetra butyl ether. Post extraction samples were dried (SPE Nitrogen dryer) and reconstituted for ELISA analysis. All samples were run in duplicates.

A short description of data set [8]: Pharmacokinetic study of RXFP2 mAbs in rat. The class given is in vivo, Wistar Han rats. As to the method: For the pharmacokinetic study of RXFP2 mAbs in rat, 1G1, 2D4, 4B1, 4G6, 1F2, and 3F3 were prepared in phosphate buffered saline (0.100 mg/mL) with low endotoxin (≤ 0.76 EU/mL). Adult male Wistar Han rats (n = 3/mAb) were administered 1 mg/kg subcutaneously (10 mL/kg). Blood samples (100 µL) were collected in EDTA containing tubes at 0.25, 3, 6 24, 48, 96, 168 (day 7), 336 (day 14), 504 (day 21), and 672 (day 28) hours post dose, immediately centrifuged (6100 rpm), and 50 µL plasma stored at − 80 °C until assay. Rats maintained health throughout the study and were anesthetized (isoflurane to effect) and euthanized on day 28.
Frozen rat plasma samples were thawed and analyzed using a qualified analytical method based on sample dilution, followed by Electrochemiluminescence immunoassay analysis. The lower limit of quantification (LLQ) was 0.1 µg/mL using a 10 µL aliquot of 51-fold diluted rat plasma with a higher limit of quantification (HLQ) of 10 µg/mL. RXFP2 mAbs were captured with LDLa protein and detected with sulfo-tag labeled mouse anti-rat IgG2b. The computer systems that were used to acquire and quantify data included Gyrolab Workstation Version 8.1.5 and Watson LIMS version 7.6.1. Rat pharmacokinetic parameters were calculated by non-compartmental analysis (NCA) analysis using WinNonlin Phoenix 64 (version 8.3). Values are reported in mean ± standard deviation.

The target of data set [9] is T3, rat RXFP2. Nature of the data set: Cortisol secretion (ELISA) in H295R stably expressing rat RXFP2. The class given is cell-based. Details: expressed in transfected cells. Particulars: H295R-rRXFP2, 3.5 nM INSL3, 48 h, read-out: IC50 on INSL3-induced cortisol release. As for the experimental part: as §1, §3
[10] abbreviates: male Wistar Han rats, 1 mg/kg s.c., n = 3, mean ± SD.

Chain of human RXFP2 (Q8WXD0 whole entry): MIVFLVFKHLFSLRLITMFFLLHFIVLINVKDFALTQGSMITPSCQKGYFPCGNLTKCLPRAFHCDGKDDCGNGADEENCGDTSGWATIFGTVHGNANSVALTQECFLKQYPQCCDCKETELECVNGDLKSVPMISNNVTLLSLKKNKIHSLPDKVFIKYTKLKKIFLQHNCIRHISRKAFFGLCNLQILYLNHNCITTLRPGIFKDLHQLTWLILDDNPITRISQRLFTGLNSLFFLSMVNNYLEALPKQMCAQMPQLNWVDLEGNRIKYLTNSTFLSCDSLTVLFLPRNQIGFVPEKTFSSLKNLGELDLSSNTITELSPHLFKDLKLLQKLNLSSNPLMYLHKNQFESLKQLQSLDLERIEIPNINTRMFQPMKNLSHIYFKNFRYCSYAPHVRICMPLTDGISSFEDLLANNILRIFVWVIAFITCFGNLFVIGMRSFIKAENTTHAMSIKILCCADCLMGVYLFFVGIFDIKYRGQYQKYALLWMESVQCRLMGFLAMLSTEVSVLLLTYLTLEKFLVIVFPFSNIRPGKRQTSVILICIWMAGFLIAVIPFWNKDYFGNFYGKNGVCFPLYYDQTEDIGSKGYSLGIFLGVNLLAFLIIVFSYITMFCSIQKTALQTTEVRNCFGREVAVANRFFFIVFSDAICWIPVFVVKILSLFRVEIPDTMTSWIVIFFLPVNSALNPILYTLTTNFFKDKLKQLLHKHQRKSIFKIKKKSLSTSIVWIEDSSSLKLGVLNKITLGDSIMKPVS
T3 sequence (F7EMH8 20-737): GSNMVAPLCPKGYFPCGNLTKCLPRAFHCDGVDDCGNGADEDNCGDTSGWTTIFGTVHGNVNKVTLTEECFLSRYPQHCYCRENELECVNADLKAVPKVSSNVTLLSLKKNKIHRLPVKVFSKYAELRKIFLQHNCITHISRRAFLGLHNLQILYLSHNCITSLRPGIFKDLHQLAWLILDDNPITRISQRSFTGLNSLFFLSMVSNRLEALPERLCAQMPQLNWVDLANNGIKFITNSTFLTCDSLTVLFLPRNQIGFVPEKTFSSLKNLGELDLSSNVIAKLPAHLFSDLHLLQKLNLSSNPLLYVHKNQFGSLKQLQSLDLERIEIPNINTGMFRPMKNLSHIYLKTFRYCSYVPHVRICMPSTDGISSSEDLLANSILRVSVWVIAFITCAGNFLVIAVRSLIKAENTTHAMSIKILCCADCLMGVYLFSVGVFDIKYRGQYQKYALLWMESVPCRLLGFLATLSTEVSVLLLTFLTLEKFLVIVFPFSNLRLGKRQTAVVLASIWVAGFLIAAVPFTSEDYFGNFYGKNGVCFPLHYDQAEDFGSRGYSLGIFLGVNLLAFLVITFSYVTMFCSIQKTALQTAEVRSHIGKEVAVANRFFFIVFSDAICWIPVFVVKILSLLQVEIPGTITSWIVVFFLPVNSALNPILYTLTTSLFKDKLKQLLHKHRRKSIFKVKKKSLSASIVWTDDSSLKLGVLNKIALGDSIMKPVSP
T2 sequence (Q8WXD0 38-105): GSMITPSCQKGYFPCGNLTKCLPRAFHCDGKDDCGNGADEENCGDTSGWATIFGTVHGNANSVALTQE
T1 sequence (Q8WXD0 43-80 limits assumed): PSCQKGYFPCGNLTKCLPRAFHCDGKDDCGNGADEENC

B1: 4F6: Human/rat cross-reactive RXFP2 monoclonal antibody, rat IgG2b backbone; binds the LDLa domain (antibody, V domains shown)
VH: EVQLQQSGPELVKPGASVKMSCKASGYTFTNYVLHWVKQKPGQGLEWIGYINPYNDGSKYNEKFKGRATLTSDKSSSTAYMELSSLTSEDSAVYYCARGGWLLDYFDYWGQGTTLTVSS
VL: DVLMTQSPLSLPVSLGEQASISCRSSQSIVHSDGDTYLEWYLQKPGQSPNLLIYKVSNRFSGVPDRFSGSGSGTDFTLKISRVEAEDLGVYYCFQGSHVPPTFGGGTKLEIK
For the molecule B1, the “binding to linker-less human LDLa peptide” value in data set [1] is “bind”. Further, in data set [2], the “HEK293-human RXFP2 cAMP % Max Response” value is ~ 82.7% and the IC50 is around 354 nM. Besides, the “cross reactivity to the human LDLa-linker” value in data set [3] is “cross reactivity”. In data set [4], the “HEK293-rat RXFP2 cAMP % Max Response” value was 80.4% and the IC50 is 48.5 nM.

B2: 2D4: RXFP2 monoclonal antibody from hybridoma, recombinantly expressed in a rat IgG2b backbone (antibody, V domains shown)
VH: QVQLKESGPGLVAPSQSLSITCTVSGFSLTTYGISWVRQPPGKGLEWLGVIWTGGGTNYNSALKSRLSISKDNSKSQVFLKMNSLQTDDTARYYCARTEGYYVMDYWGQGTSVTVSS
VL: DIQMTQSPASLSVSVGETVTITCRASENIYSNLVWYQQKQGKSPQLLVYAATNLADGVPSRFSGSGSGTQYSLKINNLQSEDFGTYYCQHFWGPPWTFGGGTKLEIK
As to B2, the IC50 was 0.11 nM in data set [5]; 0.14 nM in [6]; 0.05 nM in data set [7]; above 1000 nM in [2]; 21 nM in data set [4]; 0.17 nM in data set [9]. The “half-life, extrapolated values” in data set [8] (Wistar Han rats, 1 mg/kg sc., over 28 days) is at least 264 h. In data set [8] (from trough concentration, dose-linearity assumed), the “estimated dose to achieve tenfold higher IC50 HEK-rRXFP2 cAMP activity for approximately 28 days in rat” value was “approximately 9 mg/kg”. Further, the AUClast in data set [8] (setting [10]) amounted to 3210 ± 463 µg·h/mL. Besides, in [8] (setting [10]), the maximum concentration (Cmax) was determined as 7360 ± 1540 ng/mL. Further, the time of peak concentration (Tmax) in data set [8] (setting [10]) was 168 ± 0 h. The “HEK293-rat RXFP2 cAMP % Max Response” value in [4] is reported as 86.8%.
